Measured values taken from PMC4402612.

Target: SPE-7 IgE (DNP-specific murine IgE/λ, highly cytokinergic) (murine)

Substance: recombinant SPE-7 IgE Fab
- IC50 of recombinant SPE-7 IgE Fab (30–600 nM) for inhibition of LAD-2 cell TNF-α release evoked by 30 nM SPE-7 IgE; pair blocked: 'free' SPE-7 IgE with receptor-bound SPE-7 IgE: 0.17 µM
- IC50 of recombinant SPE-7 IgE Fab (30–600 nM) for inhibition of LAD-2 mast cell degranulation induced by 30 nM SPE-7 IgE; pair blocked: 'free' SPE-7 IgE with receptor-bound SPE-7 IgE: 0.19 µM
